Reference: article PMC7948404

Target: CysLTR2-V2(A)6 L129Q (GFP10 fusion) (UniProt Q9NS75)
Assay: FRET or BRET; BRET^2 saturation-binding in live HEK293T cells: 5 ng β-arrestin2-RLuc3 and 0-200 ng receptor-GFP10 DNA per well; unstimulated, or WT with 1 μM LTD4 for 10 min at RT; BRET^2 ratio against normalized GFP10 fluorescence, one-site fit with shared Bmax; constitutive activity from Bmax/Kd, normalized to the fully LTD4-stimulated WT receptor

Chain of UniProt Q9NS75 (Q9NS75 other isoform, or with tags, fused parts or gaps L129Q | L129Q): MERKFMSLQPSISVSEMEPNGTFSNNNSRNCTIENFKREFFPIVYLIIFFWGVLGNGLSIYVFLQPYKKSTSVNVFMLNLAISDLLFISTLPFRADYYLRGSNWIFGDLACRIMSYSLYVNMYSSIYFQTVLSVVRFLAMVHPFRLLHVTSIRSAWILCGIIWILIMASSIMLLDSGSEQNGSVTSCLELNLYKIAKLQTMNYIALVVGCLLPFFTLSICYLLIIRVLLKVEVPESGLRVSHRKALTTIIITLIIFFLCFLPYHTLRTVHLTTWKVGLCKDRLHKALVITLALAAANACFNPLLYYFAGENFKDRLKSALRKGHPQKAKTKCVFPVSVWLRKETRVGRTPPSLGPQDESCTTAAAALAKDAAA

constitutive activity of β-arrestin recruitment (% of LTD4-stimulated WT receptor): 17.8%
Substance: β-arrestin2-RLuc3 (from UniProt P32121 1-409) (natural protein)
